Columns and labels:
[1] = biological target: T1, human vascular endothelial growth factor receptor-2 Fc chimera (KDR-Fc) (human, UniProt P35968 20-764); test: radioactive equilibrium binding, 1 nM KDR-Fc
T1 construct: range 1-764; purchased from R&D Systems; also called hKDR; human VEGF-R2-Fc; not shown: human IgG1 Fc
In short: (§1)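 Tracer: ³⁵S-Met protein from reticulocyte lysate, Flag-bead purified, no nucleic acid tail. 0.2/0.5 nM binder + 0–200 nM receptor-Fc, 30° C 1 h, buffer B; Protein A bead capture 10 min RT; 0.1 M KOH elution; scintillation count.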
T1 sequence (P35968 20-764 limits assumed, change not shown, form in doubt): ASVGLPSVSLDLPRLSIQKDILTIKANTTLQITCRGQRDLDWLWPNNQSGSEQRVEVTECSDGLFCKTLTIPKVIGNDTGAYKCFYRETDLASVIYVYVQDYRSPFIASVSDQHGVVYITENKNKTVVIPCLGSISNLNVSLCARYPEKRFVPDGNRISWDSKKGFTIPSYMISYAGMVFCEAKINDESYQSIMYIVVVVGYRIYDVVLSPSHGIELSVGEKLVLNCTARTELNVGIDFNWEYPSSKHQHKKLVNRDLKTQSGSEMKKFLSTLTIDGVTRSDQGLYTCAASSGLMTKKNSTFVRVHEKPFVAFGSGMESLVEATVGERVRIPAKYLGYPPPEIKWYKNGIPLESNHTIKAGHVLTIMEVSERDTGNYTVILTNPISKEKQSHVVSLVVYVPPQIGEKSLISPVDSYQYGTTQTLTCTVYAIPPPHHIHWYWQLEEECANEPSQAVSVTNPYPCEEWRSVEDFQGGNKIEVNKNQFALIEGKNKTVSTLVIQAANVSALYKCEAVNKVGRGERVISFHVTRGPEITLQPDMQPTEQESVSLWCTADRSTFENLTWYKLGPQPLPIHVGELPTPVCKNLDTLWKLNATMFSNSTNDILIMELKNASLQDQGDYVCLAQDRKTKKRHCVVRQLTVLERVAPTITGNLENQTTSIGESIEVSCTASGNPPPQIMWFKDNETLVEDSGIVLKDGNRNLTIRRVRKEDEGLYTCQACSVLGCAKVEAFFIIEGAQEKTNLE

[2] = biological target: T2, human vascular endothelial growth factor receptor-2 Fc chimera (KDR-Fc) (human, UniProt P35968 20-764); test: radioactive equilibrium binding assay, 1 nM KDR-Fc, % of input bound
T2 construct: range 1-764; also called human VEGFR-2; not shown: human IgG1 Fc
In short: as §1
T2 sequence (P35968 20-764 limits assumed, change not shown, form in doubt): as above

[3] = biological target: T3, mouse vascular endothelial growth factor receptor-2 Fc chimera (Flk-1-Fc) (mouse, UniProt P35918 20-762); test: radioactive equilibrium binding assay, 1 nM Flk-1-Fc, % of input bound
T3 construct: Bought from R&D Systems; also called mouse VEGFR-2; not shown: Fc part of the purchased chimera, not specified
T3 sequence (P35918 20-762, change not shown): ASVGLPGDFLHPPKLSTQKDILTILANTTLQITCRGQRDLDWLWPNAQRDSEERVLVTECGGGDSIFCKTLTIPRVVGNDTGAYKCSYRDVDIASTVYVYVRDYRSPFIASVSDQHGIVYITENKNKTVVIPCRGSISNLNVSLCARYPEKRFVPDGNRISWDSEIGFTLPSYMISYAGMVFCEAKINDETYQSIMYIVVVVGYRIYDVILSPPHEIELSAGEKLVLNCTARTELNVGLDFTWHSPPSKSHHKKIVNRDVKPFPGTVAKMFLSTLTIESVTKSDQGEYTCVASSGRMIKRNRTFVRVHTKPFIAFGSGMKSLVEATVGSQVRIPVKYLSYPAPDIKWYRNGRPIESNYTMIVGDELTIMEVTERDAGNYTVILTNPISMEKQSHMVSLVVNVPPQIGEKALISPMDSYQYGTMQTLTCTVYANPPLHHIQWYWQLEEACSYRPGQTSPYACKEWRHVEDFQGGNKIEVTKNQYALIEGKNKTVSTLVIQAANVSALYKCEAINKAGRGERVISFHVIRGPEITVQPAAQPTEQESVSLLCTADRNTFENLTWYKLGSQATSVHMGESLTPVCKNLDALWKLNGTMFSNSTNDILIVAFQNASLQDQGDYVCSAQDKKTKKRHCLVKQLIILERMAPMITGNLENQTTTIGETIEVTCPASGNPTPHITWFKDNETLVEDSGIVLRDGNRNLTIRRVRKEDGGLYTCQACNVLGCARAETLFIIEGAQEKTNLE
In short: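 Receptor-Fc fusions titrated from 0 to 200 nM against a fixed 0.2 or 0.5 nM of ³⁵S-labeled scaffold protein for 1 h at 30° C. Protein A bead pull-down followed by scintillation counting of eluate versus reaction mixture. Specific binding is total minus no-receptor binding, fitted to a one-site nonlinear equation.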

Binder | Binding to 1 nM KDR, % [1] [%] | Binding to 1 nM KDR, % [2] [%] | Binding to 1 nM Flk-1, % [3] [%]
2C6 PR3 (designed binder, tag left out) VSDVPRDLEVVAATPTSLLISWRHPHFPTRYYRITYGETGGNSPVQEFTVPLQPPTATISGLKPGVDYTITGYAVTVEPNGHKLAIPISINYRT | 5 | – | –
2′H5-PR4 (designed binder, tag left out) VSDVPRDLEVVAATPTSLLISWRHPHFPTRYYRITYGETGGNSPVQEFTVPLQPPTATISGLKPGVDYTITGYAVTLGKDVRELLTPISINYRT | 3 | – | –
2D12 PR3 (designed binder, tag left out) VSDVPRDLEVVAATPTSLLISWRHPHFPTRYYRITYGETGGNSPVQEFTVPLQPPTATISGLKPGVDYTITGYAVTEGWIDHEIMIPISINYRT | 14 | – | –
2′A11-PR4 (designed binder, tag left out) VSDVPRDLEVVAATPTSLLISWRHPHFPTRYYRITYGETGGNSPVQEFTVPLQPPTATISGLKPGVDYTITGYAVTEDIRVLWLNTTISINYRT | 6 | – | –
2G12 PR3 (designed binder, tag left out) VSDVPRDLEVVAATPTSLLISWRHPHFPTRYYRITYGETGGNSPVQEFTVPLQPPTATISGLKPGVDYTITGYAVTSGQNDHALLIPISINYRT | 6 | – | –
2′F7-PR4 (designed binder, tag left out) VSDVPRDLEVVAATPTSLLISWRHPHFPTRYYRITYGETGGNSPVQEFTVPLQPPTATISGLKPGVDYTITGYAVTLGLRDRELFVPISINYRT | 5 | – | –
2′F6-PR4 (designed binder, tag left out) VSDVPRDLEVVAATPTSLLISWRHPHFPTRYYRITYGETGGNSPVQEFTVPLQPPTATISGLKPGVDYTITGYAVTLGWNDHELYIPISINYRT | 4 | – | –
2′C7-PR4 (designed binder, tag left out) VSDVPRDLEVVAATPTSLLISWRHPHFPTRYYRITYGETGGNSPVQEFTVPLQPPTATISGLKPGVDYTITGYAVTWDQNGHVLLTPISINYRT | 5 | – | –
2′D5-PR4 (designed binder, tag left out) VSDVPRDLEVVAATPTSLLISWRHPHFPTRYYRITYGETGGNSPVQEFTVPLQPPTATISGLKPGVDYTITGYAVTVAWNDHMLMTPISINYRT | 11 | – | –
2F3 PR3 (designed binder, tag left out) VSDVPRDLEVVAATPTSLLISWRHPHFPTRYYRITYGETGGNSPVQEFTVPLQPPTATISGLKPGVDYTITGYAVTLSHYGKELRTPISINYRT | 8 | – | –
2′A1-PR4 (designed binder, tag left out) VSDVPRDLEVVAATPTSLLISWRHPHFPTRYYRITYGETGGNSPVQEFTVPLQPPTATISGLKPGVDYTITGYAVTSGHNDHMLMIPISINYRT | 11 | – | –
2F10 PR3 (designed binder, tag left out) VSDVPRDLEVVAATPTSLLISWRHPHFPTRYYRITYGETGGNSPVQEFTVPLQPPTATISGLKPGVDYTITGYAVTLALFDHELLTPISINYRT | 3 | – | –
2′B9-PR4 (designed binder, tag left out) VSDVPRDLEVVAATPTSLLISWRHPHFPTRYYRITYGETGGNSPVQEFTVPLQPPTATISGLKPGVDYTITGYAVTVGPTDHELLTPISINYRT | 7 | – | –
2G9 PR3 (designed binder, tag left out) VSDVPRDLEVVAATPTSLLISWRHPHFPTRYYRITYGETGGNSPVQEFTVPLQPPTATISGLKPGVDYTITGYAVTEIYNDHELMTPISINYRT | 9 | – | –
2C12 PR3 (designed binder, tag left out) VSDVPRDLEVVAATPTSLLISWRHPHFPTRYYRITYGETGGNSPVQEFTVPLQPPTATISGLKPGVDYTITGYAVTDAQNVQAPIAQISINYRT | 6 | – | –
2′G11-PR4 (designed binder, tag left out) VSDVPRDLEVVAATPTSLLISWRHPHFPTRYYRITYGETGGNSPVQEFTVPLQPPTATISGLKPGVDYTITGYAVTGGQMNRVLMTPISINYRT | 12 | – | –
2H10 PR3 (designed binder, tag left out) VSDVPRDLEVVAATPTSLLISWRHPHFPTRYYRITYGETGGNSPVQEFTVPLQPPTATISGLKPGVDYTITGYAVTLAPSARELMTPISINYRT | 10 | – | –
2H12 PR3 (designed binder, tag left out) VSDVPRDLEVVAATPTSLLISWRHPHFPTRYYRITYGETGGNSPVQEFTVPLQPPTATISGLKPGVDYTITGYAVTEGYQNHELSVPISINYRT | 10 | – | –
2′B4-PR4 (designed binder, tag left out) VSDVPRDLEVVAATPTSLLISWRHPHFPTRYYRITYGETGGNSPVQEFTVPLQPPTATISGLKPGVDYTITGYAVTSGHNGHEVMTPISINYRT | 4 | – | –
2C9 PR3 (designed binder, tag left out) VSDVPRDLEVVAATPTSLLISWRHPHFPTRYYRITYGETGGNSPVQEFTVPLQPPTATISGLKPGVDYTITGYAVTEAPNGRELRTPISINYRT | 7 | – | –
F11 (designed binder, 10Fn3 clone, Del 1-8) EVVAATPTSLLISWRHPHFPTRYYRITYGETGGNSPVQEFTVPLQPPTATISGLKPGVDYTITGYAVTVEQNGRVLNTPISINYRT | – | 20 | 8
4A12 PR3 (designed binder, tag left out) EVVAATPTSLLISWRHPHFPTRYYRITYGETGGNSPVQEFTVPLQPPTATISGLKPGVDYTITGYAVTVAQNDHELLTPISINYRT | 13 | – | –
G2 (designed binder, 10Fn3 clone, Del 1-8) EVVAATPTSLLISWRHPHFPTRYYRITYGETGGNSPVQEFTVPLQPPTATISGLKPGVDYTITGYAVTLERNNRELLTPISINYRT | – | 25 | 9
G4 (designed binder, 10Fn3 clone, Del 1-8) EVVAATPTSLLISWRHPHFPTRYYRITYGETGGNSPVQEFTVPLQPPTATISGLKPGVDYTITGYAVTIEKNGRHLNIPISINYRT | – | 21 | 12
G3 (designed binder, 10Fn3 clone, Del 1-8) EVVAATPTSLLISWRHPHFPTRYYRITYGETGGNSPVQEFTVPLQPPTATISGLKPGVDYTITGYAVTMERSGRELMTPISINYRT | – | 28 | 10
FE (designed binder) EVVAATPTSLLISWRHPHFPTRYYRITYGETGGNSPVQEFTVPLQPPTATISGLKPGVDYTITGYAVTVERDGRELNIPISINYRT | – | 12 | 8
E23 (designed binder, 10Fn3 clone, Del 1-8) EVVAATPTSLLISWRHHPHFPTRYYRITYGETGGNSPVQEFTVPLQPPTATISGLKPGVDYTITGYAVTVHWNGRELMTPISINYRT | – | 36 | 7

— patent US20140179896A1 (published 2014)
